Experiments:
[1] = molecular target: monkey MET ECD (cynomolgus monkey); assay: ELISA: MET ECD immobilized (100 ng/well), mAb in human IgG1/lambda format in solution (0-40 nM), HRP anti-human Fc
human MET ECD [2] = molecular target: T1, human MET ECD (human, UniProt P08581 25-932); assay: as above
T1 construct: range 1-932; recombinant ECD made by standard protein engineering; also called hMET; human MET extracellular domain
Source text: To this end, we investigated whether our human/mouse equivalent anti-MET antibodies cross-reacted with MET from other species, including rat (Rattus norvegicus) and cynomolgus monkey (Macaca fascicularis). […] Human and mouse MET ECD were used as controls. A restricted panel of antibodies representative of both SEMA binders (71D6, 71C3, 71D4, 71A3, 71G2) and PSI binders (76H10, 71G3) was selected. The 5D5 prior art antibody was used as control. MET ECD proteins were immobilized in solid phase (100 ng/well in a 96-well plate) and exposed to increasing concentrations (0-40 nM) of antibodies (with human constant regions) in solution. […] We conclude that the 71D6, 71C3, 71D4, 71A3, 71G2, 76H10 and 71G3 antibodies bind with similar affinity and capacity to human MET, mouse MET, rat MET and simian MET, at least as determined by ELISA.

human MET ECD [3] = molecular target: T1, human MET ECD; assay: ELISA on MET ECD
mouse MET ECD [4] = molecular target: T2, mouse MET ECD (mouse, UniProt P16056 25-931); assay: ELISA on MET ECD
T2 construct: range 1-931; recombinant ECD; also called mMET; mouse MET extracellular domain

[5] = molecular target: T3, human MET on A549 human lung carcinoma cells (human, UniProt P08581 25-1390); assay: cell-based or functional assay
[6] = molecular target: T4, mouse MET on MLP29 mouse liver precursor cells (mouse, UniProt P16056 25-1379); assay: cell-based or functional assay
[7] = molecular target: T3, human MET on A549 human lung carcinoma …; assay: flow cytometry, A549 cells
[8] = molecular target: T4, mouse MET on MLP29 mouse liver …; assay: flow cytometry, MLP29 cells
human MET ECD [9] = molecular target: T1, human MET ECD; assay: ELISA, mouse-format mAb on MET ECD
Procedure: (§1) In order to directly determine whether—and to what extent—the prior art agonistic anti-MET antibodies cross-reacted with mouse MET, and to compare them to our human/mouse equivalent anti-MET antibodies, we performed an ELISA assay. Since all prior art antibodies were obtained or engineered with a mouse IgG/A format, we employed the mouse IgG/A version of 71G3, 71D6 and 71G2. Human or mouse MET ECD was immobilized in solid phase (100 ng/well in a 96-well plate) and exposed to increasing concentrations of antibodies (0-40 nM) in solution. […] Among the antibodies tested, only 71G3, 71D6 and 71G2 bound to both human and mouse MET, and they did so with indistinguishable affinities and capacities.

mouse MET ECD [10] = molecular target: T2, mouse MET ECD; assay: ELISA, mouse-format mAb on MET ECD
Procedure: as §1

T1 sequence (P08581 25-932 limits assumed, form in doubt): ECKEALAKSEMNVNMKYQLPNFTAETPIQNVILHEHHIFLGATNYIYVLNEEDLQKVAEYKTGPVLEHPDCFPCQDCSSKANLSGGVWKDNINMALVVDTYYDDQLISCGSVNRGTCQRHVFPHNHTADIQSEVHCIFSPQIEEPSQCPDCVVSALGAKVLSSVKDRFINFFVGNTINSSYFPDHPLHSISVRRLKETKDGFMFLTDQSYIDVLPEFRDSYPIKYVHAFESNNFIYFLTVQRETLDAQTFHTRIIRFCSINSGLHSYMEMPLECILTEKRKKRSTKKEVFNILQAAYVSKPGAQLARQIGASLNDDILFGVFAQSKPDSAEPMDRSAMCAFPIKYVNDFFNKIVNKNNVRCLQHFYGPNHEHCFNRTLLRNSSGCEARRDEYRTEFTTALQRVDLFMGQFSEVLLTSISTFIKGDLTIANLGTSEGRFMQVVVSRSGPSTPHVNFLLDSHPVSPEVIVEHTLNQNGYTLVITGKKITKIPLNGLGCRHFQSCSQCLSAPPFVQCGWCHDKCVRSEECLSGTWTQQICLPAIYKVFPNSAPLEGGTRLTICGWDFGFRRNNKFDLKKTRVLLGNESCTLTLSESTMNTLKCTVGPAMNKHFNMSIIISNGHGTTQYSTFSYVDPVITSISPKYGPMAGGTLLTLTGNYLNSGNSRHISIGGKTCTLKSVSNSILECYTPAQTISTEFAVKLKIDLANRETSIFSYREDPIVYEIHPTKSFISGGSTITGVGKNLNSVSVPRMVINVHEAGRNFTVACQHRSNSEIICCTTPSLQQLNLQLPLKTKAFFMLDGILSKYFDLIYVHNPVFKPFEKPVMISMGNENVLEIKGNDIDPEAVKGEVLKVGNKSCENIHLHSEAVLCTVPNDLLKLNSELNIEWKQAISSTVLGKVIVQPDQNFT
T3 sequence (P08581 25-1390): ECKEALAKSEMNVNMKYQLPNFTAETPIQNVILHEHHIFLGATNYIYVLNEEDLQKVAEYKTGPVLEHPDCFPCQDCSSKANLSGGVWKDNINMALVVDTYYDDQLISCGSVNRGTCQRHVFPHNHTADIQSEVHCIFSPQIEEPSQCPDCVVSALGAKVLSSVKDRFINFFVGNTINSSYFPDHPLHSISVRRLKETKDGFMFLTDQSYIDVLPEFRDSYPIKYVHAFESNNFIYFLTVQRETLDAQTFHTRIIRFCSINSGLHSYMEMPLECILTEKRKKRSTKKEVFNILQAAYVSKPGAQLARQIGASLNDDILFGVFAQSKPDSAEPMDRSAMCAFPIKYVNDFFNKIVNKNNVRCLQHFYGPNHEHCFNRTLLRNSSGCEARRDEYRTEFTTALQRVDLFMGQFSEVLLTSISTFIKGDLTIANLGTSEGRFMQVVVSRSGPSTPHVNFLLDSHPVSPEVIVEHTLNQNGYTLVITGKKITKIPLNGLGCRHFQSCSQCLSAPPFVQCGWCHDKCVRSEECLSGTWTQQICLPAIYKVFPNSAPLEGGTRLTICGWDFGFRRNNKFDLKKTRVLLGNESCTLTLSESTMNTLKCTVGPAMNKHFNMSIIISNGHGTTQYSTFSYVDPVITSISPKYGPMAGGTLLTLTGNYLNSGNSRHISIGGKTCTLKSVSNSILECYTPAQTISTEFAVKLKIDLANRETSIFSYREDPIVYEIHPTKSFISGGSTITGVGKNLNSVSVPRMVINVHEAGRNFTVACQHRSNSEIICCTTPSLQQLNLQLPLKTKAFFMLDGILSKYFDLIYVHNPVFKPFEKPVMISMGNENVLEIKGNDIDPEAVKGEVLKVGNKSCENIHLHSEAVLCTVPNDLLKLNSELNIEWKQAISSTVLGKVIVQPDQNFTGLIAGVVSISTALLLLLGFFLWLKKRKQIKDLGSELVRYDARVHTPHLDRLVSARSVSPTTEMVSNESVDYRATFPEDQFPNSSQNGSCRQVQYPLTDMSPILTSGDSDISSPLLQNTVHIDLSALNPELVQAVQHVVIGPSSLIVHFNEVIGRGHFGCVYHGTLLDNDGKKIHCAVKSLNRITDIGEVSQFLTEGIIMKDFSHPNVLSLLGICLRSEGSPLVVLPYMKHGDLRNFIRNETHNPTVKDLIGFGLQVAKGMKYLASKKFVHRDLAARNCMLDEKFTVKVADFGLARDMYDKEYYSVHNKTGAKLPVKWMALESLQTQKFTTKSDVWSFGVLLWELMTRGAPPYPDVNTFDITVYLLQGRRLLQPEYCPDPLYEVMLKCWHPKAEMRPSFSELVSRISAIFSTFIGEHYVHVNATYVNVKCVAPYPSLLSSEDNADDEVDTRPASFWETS
monkey MET ECD (cynomolgus monkey), sequence (A0A2K5 entry or part of it limits assumed): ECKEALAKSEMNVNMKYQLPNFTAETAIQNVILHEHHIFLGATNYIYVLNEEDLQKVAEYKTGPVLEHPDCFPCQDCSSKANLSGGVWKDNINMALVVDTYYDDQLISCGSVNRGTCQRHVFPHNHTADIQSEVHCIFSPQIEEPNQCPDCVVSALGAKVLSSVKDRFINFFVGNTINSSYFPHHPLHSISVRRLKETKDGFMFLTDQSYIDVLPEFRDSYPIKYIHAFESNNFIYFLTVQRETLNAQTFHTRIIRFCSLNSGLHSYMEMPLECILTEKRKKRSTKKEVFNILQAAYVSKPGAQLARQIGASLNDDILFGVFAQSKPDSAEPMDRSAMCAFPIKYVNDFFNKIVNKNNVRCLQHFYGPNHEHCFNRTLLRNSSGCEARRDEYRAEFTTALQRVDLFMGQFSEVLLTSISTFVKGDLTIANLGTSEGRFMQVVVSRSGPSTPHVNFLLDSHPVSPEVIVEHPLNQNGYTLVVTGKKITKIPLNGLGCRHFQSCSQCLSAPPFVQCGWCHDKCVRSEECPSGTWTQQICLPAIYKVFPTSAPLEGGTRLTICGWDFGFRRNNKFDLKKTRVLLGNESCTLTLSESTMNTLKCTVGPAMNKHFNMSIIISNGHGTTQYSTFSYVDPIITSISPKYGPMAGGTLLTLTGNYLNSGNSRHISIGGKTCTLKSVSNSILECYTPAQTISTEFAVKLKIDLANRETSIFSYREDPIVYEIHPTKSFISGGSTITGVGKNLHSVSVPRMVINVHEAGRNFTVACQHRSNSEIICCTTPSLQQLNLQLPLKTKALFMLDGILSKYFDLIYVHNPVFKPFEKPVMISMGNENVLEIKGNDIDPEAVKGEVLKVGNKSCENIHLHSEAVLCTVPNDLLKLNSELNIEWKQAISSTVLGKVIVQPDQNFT

Row | Molecule | EC50 (read off the curve) [1] [pM] | EC50 (read off the curve) (human MET ECD [2]) [pM] | EC50 (human MET ECD [3]) [pM] | EC50 (mouse MET ECD [4]) [pM] | A549 MET act. EMAX [5] [% HGF] | MLP29 MET act. EMAX [6] [% HGF] | EMAX [7] [% CTR] | EMAX [8] [% CTR] | EC50 (human MET ECD [9]) [pM] | EMAX (human MET ECD [9]) [OD450] | EC50 (mouse MET ECD [10]) [pM] | EMAX (mouse MET ECD [10]) [OD450]
1 | 5D5 anti-human MET antibody, human IgG1/lambda format | 300 | 200 | – | – | – | – | – | – | – | – | – | –
2 | 71G2 llama-mouse chimeric mAb (mouse IgG1/lambda) (antibody, also called 71G2 (mouse format)) heavy: EVQLQESGGGLVQPGGSLRLSCAASGFTFSIYDMSWVRQAPGKGLEWVSTINSDGSSTSYVDSVKGRFTISRDNAKNTLYLQMNSLKPEDTAVYYCAKVYGSTWDVGPMGYGMDYWGKGTLVTVSSAKTTPPSVYPLAPGSAAQTNSMVTLGCLVKGYFPEPVTVTWNSGSLSSGVHTFPAVLQSDLYTLSSSVTVPSSPRPSETVTCNVAHPASSTKVDKKIVPRDCGCKPCICTVPEVSSVFIFPPKPKDVLTITLTPKVTCVVVDISKDDPEVQFSWFVDDVEVHTAQTQPREEQFNSTFRSVSELPIMHQDWLNGKEFKCRVNSAAFPAPIEKTISKTKGRPKAPQVYTIPPPKEQMAKDKVSLTCMITDFFPEDITVEWQWNGQPAENYKNTQPIMNTNGSYFVYSKLNVQKSNWEAGNTFTCSVLHEGLHNHHTEKSLSHSPGK light: SSALTQPSALSVSLGQTARITCQGGSLGSSYAHWYQQKPGQAPVLVIYGDDSRPSGIPERFSGSSSGGTATLTISGAQAEDEDDYYCQSTDSSGNTVFGGGTRLTVLGQPKSSPSVTLFPPSSEELETNKATLVCTITDFYPGVVTVDWKVDGTPVTQGMETTQPSKQSNNKYMASSYLTLTARAWERHSSYSCQVTHEGHTVEKSLSRADCS | – | – | 113 | 109 | 102 | 102 | 142 | 128 | 98 | 2.86 | 91 | 2.96
